# Results as given in article PMC7139201 (Developmental cell, 2020).
# T1: Vps4^E233Q-3xHA (ATP hydrolysis deficient substrate trap mutant) (S. japonicus, UniProt B6K5C2 1-436, E233Q)
# T1 sequence (looked up): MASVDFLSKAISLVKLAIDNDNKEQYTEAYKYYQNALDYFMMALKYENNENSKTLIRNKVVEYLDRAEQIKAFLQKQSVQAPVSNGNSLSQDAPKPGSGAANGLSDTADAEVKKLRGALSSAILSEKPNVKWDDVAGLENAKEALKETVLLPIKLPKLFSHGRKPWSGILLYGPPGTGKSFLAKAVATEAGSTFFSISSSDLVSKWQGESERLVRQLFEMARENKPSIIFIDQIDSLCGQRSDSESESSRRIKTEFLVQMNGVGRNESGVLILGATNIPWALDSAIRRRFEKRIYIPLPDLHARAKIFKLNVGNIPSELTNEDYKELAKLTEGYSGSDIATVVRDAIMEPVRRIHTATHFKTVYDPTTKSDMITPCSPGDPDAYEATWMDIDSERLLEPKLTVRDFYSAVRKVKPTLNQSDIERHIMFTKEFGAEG
# B1: GST-Did4 (natural protein, S. japonicus, UniProt B6K6Y8 1-208, looked up)
# chain: MGMFDWIFGKQRSPAEVMRAHQRQLNRAERELDREQLKLDQREKGLIREIKANAKAGNVGAARVQARDLMRLRNSRKRMQNTKTQLQAIGLRLTTVRSSDQMMSSMRSATTLLTRMNRSANLPALTRITQQFERENDMMEQRQDMIDEQFEEGLEDEDEEEADELVDQVLDEIGVSLSQDLPSAAQANTTKADTISSGLNLEDLAHIR
# Target: T1, Vps4^E233Q-3xHA (ATP hydrolysis …)
# Assay: pull-down
binder,measurement,value
B1,binding result,binds
